How the values were obtained:
[1] = tested on: CEM X4/R5 cells; test: Confocal microscopy, localisation of hBD on CEM X4/R5 cells; type: cell-based, human; details: live cells incubated with hBD, then anti-hBD antibodies
Experimental: (§1) CEM X4/R5 cells were grown in RPMI-1640 medium containing 5% FBS and 400 μg/ml G418. Cells were collected, washed twice with PBS, resuspended in RPMI with 0.5% FBS or supplemented with 20 μg/ml recombinant hBD-2 or -3, and incubated at 37° C., 5% CO2 for 3 h. A second aliquot of cells, after incubation with hBD, was treated with FACS/Perm (PharMingen) at room temperature for 10 min and then washed three times with PBS. A third aliquot of cells was fixed in 1% paraformaldehyde on ice for 30 min, washed three times with PBS, and then incubated with 20 μg/ml hBD-2 or -3. Cells were stained with PE-labeled CXCR4 or CCR5 (PharMingen), or with primary goat anti-hBD-2 antibodies (Cell Sciences, Norwood, Mass., USA), or with rabbit anti-hBD-3 antibodies (Orbingen, San Diego, Calif., USA) at room temperature for 90 min, followed by washing three times with PBS. Fluorescein isothiocyanate-labeled rabbit anti-goat IgG (Jackson ImmunoResearch, West Grove, Pa., USA) for detection of hBD-2, or goat anti-rabbit IgG (Sigma) for detection of hBD-3, were added, respectively, at room temperature and incubated for 90 min. […] All samples were observed using a dual scanning confocal microscope system (Zeiss LSM 510, Oberkochem, Germany) and analyzed with the Zeiss LSM 5 Image Browser. […]

[2] = tested on: HIV-1 B-HXB2 virions; test: Immunogold transmission electron microscopy; type: binding; details: 20 μg/ml, 37° C., 1 h; anti-hBD antibody and 10-nm gold IgG
Experimental: (§2) (a) CXCR4 tropic HXB2 and CCR5 tropic 97ZA003 HIV-1 strains were incubated with 20 μg/ml hBD-1, -2, or -3 in 10 mM PB for 1 h. Virions were pelleted, washed extensively with PBS and used to infect GHOST X4/R5 cells. RT activity was measured 48 h post-infection. The final two columns represent an additional 20 μg/ml of hBD-2 or -3 during infection. (b) Immunoelectron microscopy analysis showing the interaction of hBD-2 and -3 with HIV-1 and with MT4 cell membrane. X4 HIV-1 HXB2 strain and MT4 cells were incubated with hBD-2 or -3 (20 μg/ml), 37° C., 1 h. Polyclonal anti-hBD-2 or -3 antibodies were added, followed by addition of secondary IgG conjugated with 10-nm gold particles. Arrows indicate hBD-2 and -3 localization to virions and cell membrane.
(§3) MT4 cells in RPMI, or X4 strain B-HXB2 viral particles in 10 mM phosphate buffer (PB), were incubated with 20 μg/ml hBD-2 and -3 at 37° C. for 1 h. Cells and virions were centrifuged (15 min, 1200 rpm for cells; 30 min, 35 000 3 g for virus) and washed twice with PBS to remove unbound hBD. Cells and virions were mixed and fixed with 4% paraformaldehyde/0.5% glutaraldehyde, dehydrated, embedded in LR WHITE resin (London Resin Company Ltd, Berkshire, UK), and labeled after embedding as described [Briquet et al.]. […]

[3] = molecular target: CCR5 (Homo sapiens, UniProt P51681); test: Confocal microscopy of co-receptor surface expression on CEM X4/R5 cells; type: cell-based; design: endogenous in cells; details: 20 μg/ml, 3 h
Experimental: as §1

[4] = molecular target: CXCR4 (Homo sapiens, UniProt P61073); test: as above; type: cell-based; design: endogenous in cells; details: 20 μg/ml, 3 h
Experimental: as §1

[5] = tested on: MT4 cellular membrane; test: Immunogold transmission electron microscopy; type: binding, human; details: 20 μg/ml, 37° C., 1 h; anti-hBD antibody and 10-nm gold IgG
Experimental: as §2, §3

[6] = tested on: HIV-1 R5-C-97ZA003; test: hBD-virion interaction: virions incubated with hBD, pelleted, washed, used to infect GHOST X4/R5 cells; type: cell-based; details: 20 μg/ml in 10 mM PB 1 h; RT activity 48 h post-infection
Experimental: as §2
(§4) In order to verify a direct hBD-virion interaction, the X4 B-HXB2 and R5-C-97ZA003 HIV-1 strains was incubated with 20 μg/ml of each hBD in 10 mM PB for 1 h, followed by pelleting and extensive washing. Virions were then used to infect GHOST X4/R5 cells. […] To further define these interactions, MT4 cells, infected with the CXCR4 tropic B-HXB2, were incubated with hBD-2 or -3 in RPMI, followed by the addition of anti-hBD-2 or -3 antibodies and goat anti-rabbit IgG conjugated with 10-nm gold particles.

[7] = tested on: HIV-1 X4 B-HXB2; test: as above; type: cell-based
Experimental: as §2, §4

CCR5, sequence (P51681 whole entry): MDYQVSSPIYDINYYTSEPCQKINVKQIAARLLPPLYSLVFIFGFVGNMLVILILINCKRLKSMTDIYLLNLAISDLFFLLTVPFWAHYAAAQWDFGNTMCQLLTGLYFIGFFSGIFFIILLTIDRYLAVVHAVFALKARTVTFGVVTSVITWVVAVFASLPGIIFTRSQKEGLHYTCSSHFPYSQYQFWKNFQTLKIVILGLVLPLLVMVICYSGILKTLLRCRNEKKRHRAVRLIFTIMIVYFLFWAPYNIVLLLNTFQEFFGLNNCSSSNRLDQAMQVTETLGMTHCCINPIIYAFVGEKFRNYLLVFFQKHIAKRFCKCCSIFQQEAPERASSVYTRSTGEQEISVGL
CXCR4, sequence (P61073 whole entry): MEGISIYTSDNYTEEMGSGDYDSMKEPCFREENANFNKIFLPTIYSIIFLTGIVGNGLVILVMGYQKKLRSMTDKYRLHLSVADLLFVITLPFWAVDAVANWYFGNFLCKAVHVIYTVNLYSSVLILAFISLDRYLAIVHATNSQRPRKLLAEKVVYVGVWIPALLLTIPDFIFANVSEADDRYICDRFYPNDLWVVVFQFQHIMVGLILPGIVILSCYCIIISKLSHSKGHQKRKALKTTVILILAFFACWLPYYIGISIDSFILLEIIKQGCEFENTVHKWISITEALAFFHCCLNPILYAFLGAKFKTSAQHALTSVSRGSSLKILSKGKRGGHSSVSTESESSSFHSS

B1: hBD-3: Recombinant human β-defensin 3 produced using an hBD-3-His tag fusion construct cloned into pET-30c; exemplary sequence SEQ ID NO:15 (protein, listed as Homo sapiens)
chain: MRIHYLLFALLFLFLVPVPGHGGIINTLQKYYCRVRGGRCAVLSCLPKEEQIGKCSTRGRKCCRRKK
modifications: not fully specified (C-terminus); ends and bridges not checked
B1 was tested, and the “detection of peptide on the cell surface” value [1] was “failed to detect”, the “gold particles bound to virions” value [2] was “bound both to virions and to the MT4 cellular membrane” and the “surface expression of CCR5” value [3] was “not”. For the same molecule, the “surface expression of CXCR4” value [4] was “dramatically decreased”, the “gold particles bound to MT4 cellular membrane” value [5] was “bound both to virions and to the MT4 cellular membrane” and the “anti-HIV-1 effect after pelleting and extensive washing of virions” value [6] was “maintained after washing”. The “anti-HIV-1 effect after pelleting and extensive washing of virions” value ([7]; 20 μg/ml in 10 mM PB 1 h, RT activity 48 h post-infection) was “maintained after washing” and the “effect of subsequent addition of hBD to the cell-virus mixture” value ([7]; additional 20 μg/ml during infection, enhancement only against the CXCR4-tropic strain) was “enhanced anti-HIV-1 activity”.
